The values below come from publication PMC4819448, “Co-operative and Hierarchical Binding of c-FLIP and Caspase-8: A Unified Model Defines How c-FLIP Isoforms Differentially Control Cell Fate” (Molecular Cell, 2016).

What is called stoichiometry N is the number of molecules, sites or subunits per partner or assembly.

The target of test [1] is endogenous caspase-8 (human (endogenous in BJAB and HaCaT)) (UniProt Q14790). As to the kind of experiment: affinity purification with mass spectrometry; native CD95 DISC from c-FLIPS overexpressing HaCaT cells; label-free absolute quantification (TOP 3) by LC-MS/MS, n = 3.
For test [2] the target is unchanged. As to the kind of experiment: affinity purification with mass spectrometry; native TRAIL DISC from c-FLIPS overexpressing BJAB cells; label-free absolute quantification (TOP 3) by LC-MS/MS, n = 3.
The target of test [3] is T1, endogenous FADD (human (endogenous in Jurkat, BJAB and …, UniProt Q13158 1-208)).
T1 construct: FADD, endogenous; source: endogenous, lysates of caspase-8 null Jurkat, BJAB and HaCaT cells
T1 sequence (looked up): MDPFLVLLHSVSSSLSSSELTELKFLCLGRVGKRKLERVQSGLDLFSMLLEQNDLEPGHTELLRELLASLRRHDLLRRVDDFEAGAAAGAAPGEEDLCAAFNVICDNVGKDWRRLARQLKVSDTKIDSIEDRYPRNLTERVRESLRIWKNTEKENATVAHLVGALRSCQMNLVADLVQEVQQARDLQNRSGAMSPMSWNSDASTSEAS
As to the kind of experiment: affinity purification with mass spectrometry; native TRAIL DISC from control (vector) BJAB cells; label-free absolute quantification (TOP 3) by LC-MS/MS, n = 3. The conditions noted are these: partners not purified.

The target in test [4] is T1, endogenous FADD. Put plainly: affinity purification with mass spectrometry; native TRAIL DISC from c-FLIPS overexpressing BJAB cells; label-free absolute quantification (TOP 3) by LC-MS/MS, n = 3. The conditions noted are these: partners not purified.

With “c-FLIPS stably overexpressed in BJAB or HaCaT cells (natural protein)”, the stoichiometry N in test [1] and in test [2] was 1 throughout.

B1: endogenous caspase-8 (natural protein, human (endogenous in BJAB and HaCaT), UniProt Q14790 1-479, looked up)
chain: MDFSRNLYDIGEQLDSEDLASLKFLSLDYIPQRKQEPIKDALMLFQRLQEKRMLEESNLSFLKELLFRINRLDLLITYLNTRKEEMERELQTPGRAQISAYRVMLYQISEEVSRSELRSFKFLLQEEISKCKLDDDMNLLDIFIEMEKRVILGEGKLDILKRVCAQINKSLLKIINDYEEFSKERSSSLEGSPDEFSNGEELCGVMTISDSPREQDSESQTLDKVYQMKSKPRGYCLIINNHNFAKAREKVPKLHSIRDRNGTHLDAGALTTTFEELHFEIKPHDDCTVEQIYEILKIYQLMDHSNMDCFICCILSHGDKGIIYGTDGQEAPIYELTSQFTGLKCPSLAGKPKVFFIQACQGDNYQKGIPVETDSEEQPYLEMDLSSPQTRYIPDEADFLLGMATVNNCVSYRNPAEGTWYIQSLCQSLRERCPRGDDILTILTEVNYEVSNKDDKKNMGKQMPQPTFTLRKKLVFPSD
notes: caspase-8, endogenous; procaspase-8 and p43/41 cleavage fragments detected; also called procaspase-8; p43/41 cleavage fragments; source: endogenous, BJAB and HaCaT lysates
B1: the “stoichiometry N” value in test [3] is around 6 fold; in test [4], around 1.
